Data: patent publication US20100203582

Target: T1, peptide SAVLQMGFRK, Substrate (7)
T1 chain: SAVLQMGFRK

B1: wild-type severe acute respiratory syndrome-associated coronavirus 3C-like protease (SARS-CoV 3CL^pro) (protein)
chain: SGFRKMAFPSGKVEGCMVQVTCGTTTLNGLWLDDTVYCPRHVICTAEDMLNPNYEDLLIRKSNHSFLVQAGNVQLRVIGHSMQNCLLRLKVDTSNPKTPKYKFVRIQPGQTFSVLACYNGSPSGVYQCAMRPNHTIKGSFLNGSCGSVGFNIDYDCVSFCYMHHMELPTGVHAGTDLEGKFYGPFVDRQTAQAAGTDTTITLNVLAWLYAAVINGDRWFLNRFTTTLNDFNLVAMKYNYEPLTQDHVDILGPLSAQTGIAVLDMCAALKELLQNGMNGRTILGSTILEDEFTPFDVVRQCSGVTFQ
  Km: Km is 76.6±3.5 µM
  kcat: kcat is 1.6±0.2 min^-1
  kcat/Km: kcat/Km=0.02 µM^-1min^-1
